In IntAct's records for PubMed 24698088:

B1: Serine protease HTRA2, mitochondrial (Homo sapiens), O43464 (parent)
chain: MAAPRAGRGAGWSLRAWRALGGIRWGRRPRLTPDLRALLTSGTSDPRARVTYGTPSLWARLSVGVTEPRACLTSGTPGPRAQLTAVTPDTRTREASENSGTRSRAWLAVALGAGGAVLLLLWGGGRGPPAVLAAVPSPPPASPRSQYNFIADVVEKTAPAVVYIEILDRHPFLGREVPISNGSGFVVAADGLIVTNAHVVADRRRVRVRLLSGDTYEAVVTAVDPVADIATLRIQTKEPLPTLPLGRSADVRQGEFVVAMGSPFALQNTITSGIVSSAQRPARDLGLPQTNVEYIQTDAAIDFGNSGGPLVNLDGEVIGVNTMKVTAGISFAIPSDRLREFLHRGEKKNSSSGISGSQRRYIGVMMLTLSPSILAELQLREPSFPDVQHGVLIHKVILGSPAHRAGLRPGDVILAIGEQMVQNAEDVYEAVRTQSQLAVQIRRGRETLTLYVTPEVTE
partner: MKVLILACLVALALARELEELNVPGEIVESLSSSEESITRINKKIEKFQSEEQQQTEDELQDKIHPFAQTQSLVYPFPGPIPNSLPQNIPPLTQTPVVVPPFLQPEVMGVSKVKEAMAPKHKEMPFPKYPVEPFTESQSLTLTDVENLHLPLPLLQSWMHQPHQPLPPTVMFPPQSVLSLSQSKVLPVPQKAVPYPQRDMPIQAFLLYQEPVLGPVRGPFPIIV

Variants of: B1
Details: with casb_bovin CSN2, P02666
With MAAPRAGRGAGWSLRAWRALGGIRWGRRPRLTPDLRALLTSGTSDPRARVTYGTPSLWARLSVGVTEPRACLTSGTPGPRAQLTAVTPDTRTREASENSGTRSRAWLAVALGAGGAVLLLLWGGGRGPPAVLAAVPSPPPASPRSQYNFIADVVEKTAPAVVYIEILDRHPFLGREVPISNGSGFVVAADGLIVTNAHVVADRRRVRVRLLSGDTYEAVVTAVDPVADIATLRIQTKEPLPTLPLGRSADVRQGEFVVAMGSPFALQNTITSGIVSSAQRPARDLGLPQTNVEYIQTDAAIDFGNSGGPLVNLDGEVIGVNTMKVTAGISFAIPSDRLREFLHRGEKKNSSSGISGSQRRYIAVMMLTLSPSILAELQLREPSFPDVQHGVLIHKVILGSPAHRAGLRPGDVILAIGEQMVQNAEDVYEAVRTQSQLAVQIRRGRETLTLYVTPEVTE [G363A] the “effect of a mutation on the interaction” value was “decreasing interaction”.
